Source: PMC3285272 (Cell, 2012)
Substitutions are numbered along the chain they refer to.

What was measured:
Experiment in all cases: pull-down
[1] = target: full-length βδ/γζ-COP complex (R. norvegicus | B. taurus, UniProt P23514 1-953; P53619 1-511; P53620 1-874; P35604 1-177)
full-length βδ-COP dimer = target: T1, full-length βδ-COP dimer (R. norvegicus | B. taurus, UniProt P23514 1-953; P53619 1-511)
T1 sequence (looked up) 1: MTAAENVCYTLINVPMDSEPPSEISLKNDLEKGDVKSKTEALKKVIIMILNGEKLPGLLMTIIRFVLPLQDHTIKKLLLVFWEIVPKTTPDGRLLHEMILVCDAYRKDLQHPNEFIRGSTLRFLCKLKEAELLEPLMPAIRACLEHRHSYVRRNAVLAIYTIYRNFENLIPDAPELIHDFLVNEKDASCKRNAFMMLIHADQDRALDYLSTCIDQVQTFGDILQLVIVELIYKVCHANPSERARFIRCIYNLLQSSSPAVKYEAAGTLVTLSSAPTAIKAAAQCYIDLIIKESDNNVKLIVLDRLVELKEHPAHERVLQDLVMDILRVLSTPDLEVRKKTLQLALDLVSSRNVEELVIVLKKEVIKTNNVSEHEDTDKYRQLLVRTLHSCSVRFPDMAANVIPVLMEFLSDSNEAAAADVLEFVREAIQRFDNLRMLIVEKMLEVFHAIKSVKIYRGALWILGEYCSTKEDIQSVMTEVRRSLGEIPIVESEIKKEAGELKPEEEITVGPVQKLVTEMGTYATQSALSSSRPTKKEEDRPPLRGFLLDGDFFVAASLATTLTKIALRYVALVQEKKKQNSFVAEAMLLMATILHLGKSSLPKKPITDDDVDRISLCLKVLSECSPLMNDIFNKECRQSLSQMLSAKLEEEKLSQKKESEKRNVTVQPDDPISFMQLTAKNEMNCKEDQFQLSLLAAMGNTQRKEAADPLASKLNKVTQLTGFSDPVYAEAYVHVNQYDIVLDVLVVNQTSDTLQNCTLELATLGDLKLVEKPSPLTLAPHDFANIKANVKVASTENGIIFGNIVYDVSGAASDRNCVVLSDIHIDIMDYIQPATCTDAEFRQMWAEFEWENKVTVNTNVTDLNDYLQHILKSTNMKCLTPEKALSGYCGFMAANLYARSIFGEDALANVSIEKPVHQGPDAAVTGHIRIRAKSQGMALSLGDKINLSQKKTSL
T1 sequence (looked up) 2: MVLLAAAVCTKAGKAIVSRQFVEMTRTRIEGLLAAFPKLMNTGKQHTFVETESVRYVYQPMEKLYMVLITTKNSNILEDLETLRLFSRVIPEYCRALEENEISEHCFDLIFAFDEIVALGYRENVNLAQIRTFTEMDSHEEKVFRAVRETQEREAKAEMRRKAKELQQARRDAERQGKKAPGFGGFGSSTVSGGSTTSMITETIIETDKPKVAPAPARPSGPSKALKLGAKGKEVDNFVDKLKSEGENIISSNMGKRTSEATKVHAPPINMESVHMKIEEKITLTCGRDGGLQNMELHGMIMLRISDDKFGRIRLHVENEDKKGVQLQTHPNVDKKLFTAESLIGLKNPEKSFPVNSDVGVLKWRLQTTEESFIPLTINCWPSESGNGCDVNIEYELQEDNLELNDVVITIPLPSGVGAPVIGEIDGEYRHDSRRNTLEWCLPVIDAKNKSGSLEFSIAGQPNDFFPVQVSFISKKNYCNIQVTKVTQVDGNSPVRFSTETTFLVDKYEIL

[2] = target: T2, βδ-COP dimer with full-length β-COP L124E (R. norvegicus | B. taurus, UniProt P23514 1-953; P53619 1-511, L124E)
T2 sequence (looked up) 1: T1 sequence (looked up) 1 with L124E
T2 sequence (looked up) 2: T1 sequence (looked up) 2

Measured: binding result

B1: S. cerevisiae Arf1 (residues 18–181) with a C-terminal GST tag (domain or fragment, UniProt P11076 18-181, looked up)
chain: MRILMVGLDGAGKTTVLYKLKLGEVITTIPTIGFNVETVQYKNISFTVWDVGGQDRIRSLWRHYYRNTEGVIFVVDSNDRSRIGEAREVMQRMLNEDELRNAAWLVFANKQDLPEAMSAAEITEKLGLHSIRNRPWFIQATCATSGEGLYEGLEWLSNSLKNST
binds: all assays above
